Sequences and labels used below:
T1: ヒトFas抗原 (ヒトリンパ球細胞株HPB−ALL細胞上) (human, UniProt P25445 26-335)
T1 sequence (looked up): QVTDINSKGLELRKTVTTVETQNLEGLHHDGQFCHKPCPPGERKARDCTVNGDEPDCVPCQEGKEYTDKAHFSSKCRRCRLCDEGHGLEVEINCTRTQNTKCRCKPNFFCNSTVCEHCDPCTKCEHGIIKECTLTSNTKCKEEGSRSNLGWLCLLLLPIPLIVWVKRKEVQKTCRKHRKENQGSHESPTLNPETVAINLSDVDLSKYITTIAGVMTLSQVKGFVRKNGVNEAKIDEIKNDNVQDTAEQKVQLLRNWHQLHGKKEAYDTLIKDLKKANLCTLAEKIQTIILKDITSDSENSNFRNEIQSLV

B1: マウス抗ヒトFas抗体CH11(MBL社) (antibody, mouse IgM)
heavy: EVQLQQSGPELVKPGASVKISCKASGYTFTDYNMHWVKQSHGKSLEWIGYIYPYNGGTGYNQKFKSKATLTVDNSSSTAYMELRSLTSEDSAVYYCARSYYAMDYWGQGTSVTVSSESQSFPNVFPLVSCESPLSDKNLVAMGCLARDFLPSTISFTWNYQNNTEVIQGIRTFPTLRTGGKYLATSQVLLSPKSILEGSDEYLVCKIHYGGKNRDLHVPIPAVAEMNPNVNVFVPPRDGFSGPAPRKSKLICEATNFTPKPITVSWLKDGKLVESGFTTDPVTIENKGSTPQTYKVISTLTISEIDWLNLNVYTCRVDHRGLTFLKNVSSTCAASPSTDILTFTIPPSFADIFLSKSANLTCLVSNLATYETLNISWASQSGEPLETKIKIMESHPNGTFSAKGVASVCVEDWNNRKEFVCTVTHRDLPSPQKKFISKPNEVHKHPPAVYLLPPAREQLNLRESATVTCLVKGFSPADISVQWLQRGQLLPQEKYVTSAPMPEPGAPGFYFTHSILTVTEEEWNSGETYTCVVGHEALPHLVTERTVDKSTGKPTLYNVSLIMSDTGGTCY
light: DVVMTQSPLSLPVSLGDQASISCRSSKSLVHSNGNTYLHWYLQKPGQSPKLLIYKVSNRFSGVPDRFSGSGSGTDFTLKISRVEAEDLGVYFCSQSTHVPPAFGGGTKLEIKRADAAPTVSIFPPSSEQLTSGGASVVCFLNNFYPKDINVKWKIDGSERQNGVLNSWTDQDSKDSTYSMSSTLTLTKDEYERHNSYTCEATHKTSTSPIVKSFNRNEC
chain: DDEATILADNKCMCTRVTSRIIPSTEDPNEDIVERNIRIVVPLNNRENISDPTSPLRRNFVYHLSDVCKKCDPVEVELEDQVVTATQSNICNEDDGVPETCYMYDRNKCYTTMVPLRYHGETKMVQAALTPDSCYPD
B2: 抗ヒトFasヒト化抗体 [B] (pHμM1-1 及び pHκKY2-58 でコ・トランスフェクションしたCOS-7細胞の発現産物; HμM鎖 + VL-KY鎖) (antibody)
heavy: EVQLVQSGAEVKKPGASVKVSCKASGYTFTDYNMHWVKQAHGKSLEWMGYIYPYNGGTGYNQKFKSKATLTVDNSASTAYMELSSLRSEDTAVYYCARSYYAMDYWGQGTLVTVSSGSASAPTLFPLVSCENSPSDTSSVAVGCLAQDFLPDSITFSWKYKNNSDISSTRGFPSVLRGGKYAATSQVLLPSKDVMQGTDEHVVCKVQHPNGNKEKNVPLPVIAELPPKVSVFVPPRDGFFGNPRKSKLICQATGFSPRQIQVSWLREGKQVGSGVTTDQVQAEAKESGPTTYKVTSTLTIKESDWLSQSMFTCRVDHRGLTFQQNASSMCVPDQDTAIRVFAIPPSFASIFLTKSTKLTCLVTDLTTYDSVTISWTRQNGEAVKTHTNISESHPNATFSAVGEASICEDDWNSGERFTCTVTHTDLPSPLKQTISRPKGVALHRPDVYLLPPAREQLNLRESATITCLVTGFSPADVFVQWMQRGQPLSPEKYVTSAPMPEPQAPGRYFAHSILTVSEEEWNTGETYICVVAHEALPNRVTERTVDKSTGKPTLYNVSLVMSDTAGTCY
light: DVVMTQSPLSLPVTLGQPASISCRSSKSLVHSNGNTYLHWYLQKPGQSPKLLIYKVSNRFSGVPDRFSGSGSGTDFTLKISRVEAEDVGVYYCSQSTHVPPAFGQGTKVEIKRTVAAPSVFIFPPSDEQLKSGTASVVCLLNNFYPREAKVQWKVDNALQSGNSQESVTEQDSKDSTYSLSSTLTLSKADYEKHKVYACEVTHQGLSSPVTKSFNRGEC
B3: 抗ヒトFasヒト化抗体 [I] (pHμH5-1 及び pHκRF2-52; HμH鎖 + VL-RF鎖) (antibody, human IgM)
heavy: B2 heavy with K38R, H41P, K43Q, S44G
light: B2 light with K50R, Y92F
B4: 抗ヒトFasヒト化抗体 [E] (pHμM1-1 及び pHκRF2-52; HμM鎖 + VL-RF鎖) (antibody, human IgM)
heavy: B2 heavy
light: B2 light with K50R, Y92F
B5: 抗ヒトFasヒト化抗体 [D] (pHμM1-1 及び pHκRY2-10; HμM鎖 + VL-RY鎖) (antibody, human IgM)
heavy: B2 heavy
light: B2 light with K50R
B6: 抗ヒトFasヒト化抗体 [G] (pHμH5-1 及び pHκKF2-19; HμH鎖 + VL-KF鎖) (antibody, human IgM)
heavy: B2 heavy with K38R, H41P, K43Q, S44G
light: B2 light with Y92F
B7: 抗ヒトFasヒト化抗体 [C] (pHμM1-1 及び pHκKF2-19; HμM鎖 + VL-KF鎖) (antibody, human IgM)
heavy: B2 heavy
light: B2 light with Y92F

Positions count from the first letter of the chain named.

This assay has as its target T1, ヒトFas抗原 (ヒトリンパ球細胞株HPB−ALL細胞上). Nature of the assay: cell-based or functional assay.
As to B1, the “ED 50 (細胞生存率が50%になるIgMの濃度; HPB-ALL 細胞, WST-1)” value was 10.7 ng/mL.
As for B2, the “ED 50 (細胞生存率が50%になるIgMの濃度; HPB-ALL 細胞, WST-1)” value is 1.1 ng/mL.
With B3, the “ED 50 (細胞生存率が50%になるIgMの濃度; HPB-ALL 細胞, WST-1)” value was 3.4 ng/mL.
Take B4: the “ED 50 (細胞生存率が50%になるIgMの濃度; HPB-ALL 細胞, WST-1)” value was 1.5 ng/mL.
On to B5, for which the “ED 50 (細胞生存率が50%になるIgMの濃度; HPB-ALL 細胞, WST-1)” value is 1.7 ng/mL.
On to B6, for which the “ED 50 (細胞生存率が50%になるIgMの濃度; HPB-ALL 細胞, WST-1)” value came to 2.4 ng/mL.
As to B7, the “ED 50 (細胞生存率が50%になるIgMの濃度; HPB-ALL 細胞, WST-1)” value is 1 ng/mL.

The record behind these values is patent JPH10324699A (dated 1998).
